This note sets out measurements from PMC12355267, “Human Helicase DDX5 is Hijacked by SARS-CoV‑2 Nsp13 Helicase to Enhance RNA Unwinding” (ACS Omega, 2025).

This assay has as its target T1, SARS-CoV-2 Nsp13 helicase (SARS-CoV-2, UniProt P0DTD1 5325-5925).
T1 construct: also called Nsp13 helicase of SARS-CoV-2
The assay can be described thus: BLI. Conditions: both partners purified.

B1: DDX5ΔC (1–484) (domain or fragment, human, UniProt P17844 1-484, looked up)
chain: MSGYSSDRDRGRDRGFGAPRFGGSRAGPLSGKKFGNPGEKLVKKKWNLDELPKFEKNFYQEHPDLARRTAQEVETYRRSKEITVRGHNCPKPVLNFYEANFPANVMDVIARQNFTEPTAIQAQGWPVALSGLDMVGVAQTGSGKTLSYLLPAIVHINHQPFLERGDGPICLVLAPTRELAQQVQQVAAEYCRACRLKSTCIYGGAPKGPQIRDLERGVEICIATPGRLIDFLECGKTNLRRTTYLVLDEADRMLDMGFEPQIRKIVDQIRPDRQTLMWSATWPKEVRQLAEDFLKDYIHINIGALELSANHNILQIVDVCHDVEKDEKLIRLMEEIMSEKENKTIVFVETKRRCDELTRKMRRDGWPAMGIHGDKSQQERDWVLNEFKHGKAPILIATDVASRGLDVEDVKFVINYDYPNSSEDYIHRIGRTARSTKTGTAYTFFTPNNIKQVSDLISVLREANQAINPKLLQLVEDRGSGRSR
notes: human DDX5 without the flexible C-terminal end, residues 1-484; also called C-terminal truncated form of DDX5; source: E. coli (gene optimized for E. coli expression, pETM-13), purified
With B1, the binding result is “binds”.
